Source: PMC3720919, “Mcm10 Self-Association Is Mediated by an N-Terminal Coiled-Coil Domain” (PLoS ONE, 2013)
“And” between values parts separate entries of the source, which are not always exact repeats. Equal entries are not always repeated.

Legend:
[1] = target: the molecule itself; assay: AUC; sedimentation velocity, 42,000 rpm, 20°C; 0.6 mg/ml in PBS pH 7.4, 150 mM NaCl, 0.3 mM TCEP
[2] = target: the molecule itself; assay: AUC; sedimentation velocity, 42,000 rpm, 20°C; 0.6 mg/ml in 25 mM sodium acetate pH 4.7, 150 mM NaCl, 0.3 mM TCEP
[3] = target: the molecule itself; assay: native gel or EMSA; native gel electrophoresis (4-16% Bis-Tris) of the NTD
[4] = target: the molecule itself; assay: crystal structure; MBP-CC fusions at 50 mg/mL, sitting drop vapor diffusion, 16°C, sodium acetate pH 4.8; molecular replacement with MBPX(E)
[5] = target: the molecule itself; assay: SEC-MALS; Superose6 10/300 GL, 0.4 ml/min, 25 mM Tris pH 7.5, 150 mM NaCl, 2% glycerol, 2 mM BME

B1: MBP-CC 95-132 (xMcm10 residues 95-132 fused to maltose binding protein) (domain or fragment, Xenopus laevis, UniProt Q5EAW4 95-132, looked up)
chain: VCQEKSKDELEDELRKMQAQMKKLQEQLQKTALAKTSS
notes: Mcm10, Xenopus laevis, coiled-coil region, residues 95-132; MBPX(E) as in PDB 3H4Z (search model); the linker in the 95-124 model is AAAMG; Calculated mass 45.1 kDa; source: E. coli C41, purified (amylose resin, Superdex S200); not shown: MBP (mutant form MBPX(E) from pMALX(E); short uncleavable linker), N-terminal, kept
In the case of B1, the “stoichiometry N” value [1] is reported as 1.7 MBP-CC subunits and the “stoichiometry N” value [2] is reported as 3 and 2.

B2: Mcm10-NTD (aa 1-145) L104A/L108A (2A mutant) (domain or fragment, Xenopus laevis, UniProt Q5EAW4 1-145, looked up)
chain: MEVDADLELLTSLLEENEAAERNGVVSHEASSELDEFDELFDGDEDGSYHGSDNGTEEQTIGGVEEDFTTLFGDIDDIKEEEAAASDTKKQSSSVCQEKSKDEAEDEARKMQAQMKKLQEQLQKTALAKTSSPGNPKKSPENKMV
notes: Mcm10, Xenopus laevis, residues 1-145 with L104A/L108A; also called NTD 2A
B2: binds [3].

B3: MBP-CC 95-124 (xMcm10 residues 95-124 fused to maltose binding protein) (domain or fragment, Xenopus laevis, UniProt Q5EAW4 95-124, looked up)
chain: VCQEKSKDELEDELRKMQAQMKKLQEQLQK
notes: Mcm10, Xenopus laevis, coiled-coil region, residues 95-124 (95-122 in the final model); Trimer in the crystal; dimer in sedimentation velocity; MBPX(E) as in PDB 3H4Z; also called xMcm10-CC^95–124; wild-type CC; source: E. coli C41, purified (amylose resin, Superdex S200); not shown: MBP (mutant form MBPX(E) residues 1-367; uncleavable linker AAAMG), N-terminal, kept
For B3, the “stoichiometry N” value [4] was 3.

B4: Full-length Xenopus laevis Mcm10 (natural protein, UniProt Q5EAW4 1-860, looked up)
chain: MEVDADLELLTSLLEENEAAERNGVVSHEASSELDEFDELFDGDEDGSYHGSDNGTEEQTIGGVEEDFTTLFGDIDDIKEEEAAASDTKKQSSSVCQEKSKDELEDELRKMQAQMKKLQEQLQKTALAKTSSPGNPKKSPENKMVQSGKTSRTSPLIERKKTDSNTVAPQLTSPTVPKAKLPDAPKRKQNLSDKSPVQKKMASFLSPPEKSSARPGQSTATQPITNTLKSPVGQQYHVEKFSGLRIRKPRVSSSEMERKMNGRKLIRLAQLQNKIATEKLEEEDWVTFGVIVKKITPQSSNNGKTFSIWRLNDLKDLDKYISLFLFGDVHKEHWKTDQGTVIGLLNANPMKPKEGTDEVCLSVDNPQKVLLMGDAVDLGTCKARKKNGDPCTQMVNLNDCEYCQYHVQAQYKKVSSKRADLQSSYSGHVPKKMARGANGLRERLCQGGFHYGGVSSMAYAATLGSTTAPKKTVQSTLSNMVVRGAEAIALEARQKIAAAKNVVQTDEFKELMTLPTPGALNLKKHLSGVSPQANCGKEGQPIQSISASTLLKQQKQQMLNARKKRAEESQKRFLESTEKSEKSSTLTSSACSVFQSPKQGAEFPNAQKMATPKLGRGFAEGDDVLFFDISPPPAPKLSTSAEAKKLLAIQKLQAKGQTLAKTDPNSIKRKRGSSSEELVAQRVASHASTSPKSPDENEPAIKKHRDQLAYLESEEFQKILNAKSKHTGILKEAEVEIQEHYFDPLVKKEQLEEKMQSIREQSCRVVTCKTCKYTHFKPKETCVSENHDFHWHNGVKRFFKCPCGNRTISLDRLPKKHCSTCGLFKWERVGMLKEKTGPKLGGETLLPRGEEHGKFLNSLK
notes: Minichromosome maintenance protein 10 (Mcm10), Xenopus laevis, full length (860 residues by the construct 230-860; calculated mass 95.4 kDa); also called xMcm10; full-length Mcm10; source: Hi-5 insect cells (baculovirus, Bac-to-Bac), purified (Ni-NTA, Source Q, Superose6 gel filtration)
With B4 the “stoichiometry N” value [5] was ~2 Mcm10 subunits and ~3.4 Mcm10 subunits.
